Test results from the RNAGym collection of RNA variant scans (doi:10.1093/molbev/msab373).

B1: Azoarcus group I ribozyme (parent)
chain: GUGCCUUGCGCCGGGAAACCACGCAAGGGAUGGUGUCAAAUUCGGCGAAACCUAAGCGCCCGCCCGGGCGUAUGGCAACGCCGAGCCAAGCUUCGGCGCCUGCGCCGAUGAAGGUGUAGAGACUAGACGGCACCCACCUAAGGCAAACGCUAUGGUGAAGGCAUAGUCCAGGGAGUGGCGAAAGUCACACAAACCGG

Variants of: B1
Assay: reverse-splicing fitness (ratio to wild type); higher = more active; in vitro selection; Mg2+ level not given
Method in brief: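 An in vitro group I ribozyme library with randomized positions was T7-transcribed and gel-purified. In triplicate, 10 pmol RNA in EPPS pH 7.5 was reacted with 50 pmoles of a 30-nt RNA substrate for 1 h at 37 °C across several added MgCl2 levels (1–48 mM), then stopped with EDTA. Products were reverse transcribed from a substrate-complementary primer, PCR-amplified and sequenced (HiSeq 4000). Fitness is a variant's read proportion after selection over that before, normalised to wild type.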
In the case of C82U A111G A120G C150U U176G, the reverse-splicing fitness is reported as 0.00506. Variant C82U A111G A120G C150U U176C has a reverse-splicing fitness of 0.0156. Work on C82U A111G A120G C150U U176A yielded a reverse-splicing fitness of 0.00985. C82U A111G A120G A145U C169G U176G gave a reverse-splicing fitness of 0.00372. C82U A111G A120G A145U C169G U176C gave a reverse-splicing fitness of 0.0118. Variant C82U A111G A120G A145U C169G U176A has a reverse-splicing fitness of 0.0112. Work on C82U A111G A120G A145U C150U U176G yielded a reverse-splicing fitness of 0.00411. For C82U A111G A120G A145U C150U U176A, the reverse-splicing fitness was 0.00942. C82U A111G A120G A145U C150U U176C gave a reverse-splicing fitness of 0.0124. Work on C82U A111G A120G A145U C150G C169A U176G yielded a reverse-splicing fitness of 0.00391. For C82U A111G A120G A145U C150G C169A U176A, the reverse-splicing fitness was 0.00905. C82U A111G A120G A145U C150G C169A U176C showed a reverse-splicing fitness of 0.00917. Work on C82U A111G A120G C150U C169A U176G yielded a reverse-splicing fitness of 0.00504. C82U A111G A120G C150U C169A U176A gave a reverse-splicing fitness of 0.0143. C82U A111G A120G C150U C169A U176C gave a reverse-splicing fitness of 0.0129. Variant C82U A111G A120G A145U C150G C169U U176G has a reverse-splicing fitness of 0.0048. For C82U A111G A120G A145U C150G C169U U176A, the reverse-splicing fitness was 0.0129. C82U A111G A120G A145U C150G C169U U176C showed a reverse-splicing fitness of 0.0117. With C82U A111G A120G A145C C150G C169U the reverse-splicing fitness was 0.00741. Variant C82U A111G A120G A145C C150G C169G has a reverse-splicing fitness of 0.00713. Work on C82U A111G A120G A145C C150G C169A yielded a reverse-splicing fitness of 0.00854. Variant C82U A111G A120G C150A C169G has a reverse-splicing fitness of 0.00939. C82U A111G A120G C150A C169A gave a reverse-splicing fitness of 0.00997. C82U A111G A120G C150A C169U showed a reverse-splicing fitness of 0.00735. For C82U A111G A120G A145C C150U C169G, the reverse-splicing fitness was 0.00844. With C82U A111G A120G A145C C150U C169U the reverse-splicing fitness was 0.00745. Variant C82U A111G A120G A145C C150U C169A has a reverse-splicing fitness of 0.0078. In the case of C82U A111G A120U A145C C150A, the reverse-splicing fitness is reported as 0.00504. For C82U A111G A120U A145C C150U, the reverse-splicing fitness was 0.011. Work on C82U A111G A120U A145C C150G yielded a reverse-splicing fitness of 0.00671. C82U A111G A120C C169U showed a reverse-splicing fitness of 0.0118. C82U A111G A120C C169G showed a reverse-splicing fitness of 0.00773. With C82U A111G A120G C169G U176G the reverse-splicing fitness was 0.00369. Variant C82U A111G A120G C169G U176A has a reverse-splicing fitness of 0.0186. In the case of C82U A111G A120G C169G U176C, the reverse-splicing fitness is reported as 0.0247. In the case of C82U A111G A120U A145C U176A, the reverse-splicing fitness is reported as 0.00851. C82U A111G A120U A145C U176G showed a reverse-splicing fitness of 0.00339. Work on C82U A111G A120U A145C U176C yielded a reverse-splicing fitness of 0.0117. In the case of C82U A111G A120G C150G C169U U176C, the reverse-splicing fitness is reported as 0.0124. Work on C82U A111G A120G C150G C169U U176G yielded a reverse-splicing fitness of 0.00601. For C82U A111G A120G C150G C169U U176A, the reverse-splicing fitness was 0.0121. With C82U A111G A120G A145G C150A C169A U176G the reverse-splicing fitness was 0.00545. Variant C82U A111G A120G A145G C150A C169A U176A has a reverse-splicing fitness of 0.0174. Work on C82U A111G A120G A145G C150A C169A U176C yielded a reverse-splicing fitness of 0.0196. C82U A111G A120C U176A gave a reverse-splicing fitness of 0.0204. In the case of C82U A111G A120C U176G, the reverse-splicing fitness is reported as 0.00542. Work on C82U A111G A120C U176C yielded a reverse-splicing fitness of 0.0288. In the case of C82U A111G A120U A145C C150U C169A U176C, the reverse-splicing fitness is reported as 0.0021. In the case of C82U A111G A120U A145C C150U C169A U176A, the reverse-splicing fitness is reported as 0.00277. Work on C82U A111G A120U A145C C150U C169A U176G yielded a reverse-splicing fitness of 0.00196. C82U A111G A120G C150A C169A U176A gave a reverse-splicing fitness of 0.0173. C82U A111G A120G C150A C169A U176C gave a reverse-splicing fitness of 0.0192. With C82U A111G A120G C150A C169A U176G the reverse-splicing fitness was 0.00577. C82U A111G A120G C150G C169A U176G showed a reverse-splicing fitness of 0.00628. For C82U A111G A120G C150G C169A U176C, the reverse-splicing fitness was 0.0101. C82U A111G A120G C150G C169A U176A gave a reverse-splicing fitness of 0.00933. For C82U A111G A120G A145U C150U, the reverse-splicing fitness was 0.0126. With C82U A111G A120G A145U C150G the reverse-splicing fitness was 0.00645. In the case of C82U A111G A120G A145U C150A, the reverse-splicing fitness is reported as 0.00726. Work on C82U A111G A120G A145G C150G C169A U176G yielded a reverse-splicing fitness of 0.00756. Work on C82U A111G A120G A145G C150G C169A U176A yielded a reverse-splicing fitness of 0.0123. In the case of C82U A111G A120G A145G C150G C169A U176C, the reverse-splicing fitness is reported as 0.0117. Work on C82U A111G A120G A145U C150U C169A U176C yielded a reverse-splicing fitness of 0.00928. With C82U A111G A120G A145U C150U C169A U176G the reverse-splicing fitness was 0.0045. Work on C82U A111G A120G A145U C150U C169A U176A yielded a reverse-splicing fitness of 0.0119. With C82U A111G A120G A145C C150U U176G the reverse-splicing fitness was 0.00386. C82U A111G A120G A145C C150U U176C showed a reverse-splicing fitness of 0.00908. C82U A111G A120G A145C C150U U176A showed a reverse-splicing fitness of 0.0079. For C82U A111G A120G A145C C150A U176C, the reverse-splicing fitness was 0.00818. With C82U A111G A120G A145C C150A U176G the reverse-splicing fitness was 0.00354. Variant C82U A111G A120G A145C C150A U176A has a reverse-splicing fitness of 0.00929. Work on C82U A111G A120G A145G U176C yielded a reverse-splicing fitness of 0.0192. C82U A111G A120G A145G U176A gave a reverse-splicing fitness of 0.0123. For C82U A111G A120G A145G U176G, the reverse-splicing fitness was 0.00429. C82U A111G A120G A145G C150A showed a reverse-splicing fitness of 0.00878. In the case of C82U A111G A120G A145G C150U, the reverse-splicing fitness is reported as 0.0132. In the case of C82U A111G A120G A145G C150G, the reverse-splicing fitness is reported as 0.00721. Variant C82U A111G A120U A145C C150U C169G U176A has a reverse-splicing fitness of 0.00322. C82U A111G A120U A145C C150U C169G U176C showed a reverse-splicing fitness of 0.00203. With C82U A111G A120U A145C C150U C169G U176G the reverse-splicing fitness was 0.00171. C82U A111G A120G A145C C169U U176G gave a reverse-splicing fitness of 0.00353. C82U A111G A120G A145C C169U U176A gave a reverse-splicing fitness of 0.0189. For C82U A111G A120G A145C C169U U176C, the reverse-splicing fitness was 0.0105.
